Data as given in patent US20080267971A1 (published 2008).
Where a chain is given by its changes, count along the chain named.

T1: human Ang-2443 (human, UniProt O15123 19-496)
T1 construct: Splice variant missing amino acids 96-148; supernatant of transfected 293F cells
T1 sequence: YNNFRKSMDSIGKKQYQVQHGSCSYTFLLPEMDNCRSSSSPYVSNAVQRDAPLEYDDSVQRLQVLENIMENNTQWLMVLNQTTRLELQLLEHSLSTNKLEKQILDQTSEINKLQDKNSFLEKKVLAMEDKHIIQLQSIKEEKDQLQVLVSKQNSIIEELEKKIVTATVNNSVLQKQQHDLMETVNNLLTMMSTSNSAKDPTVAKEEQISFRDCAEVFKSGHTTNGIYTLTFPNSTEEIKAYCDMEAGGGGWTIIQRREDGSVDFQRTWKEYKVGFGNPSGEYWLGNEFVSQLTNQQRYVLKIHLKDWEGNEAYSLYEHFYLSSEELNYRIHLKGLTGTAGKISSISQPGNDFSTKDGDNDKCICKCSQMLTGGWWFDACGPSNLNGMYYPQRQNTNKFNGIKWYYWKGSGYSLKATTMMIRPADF

T2: Human Ang-1/2 BsmI chimeric molecule (human)
T2 chain: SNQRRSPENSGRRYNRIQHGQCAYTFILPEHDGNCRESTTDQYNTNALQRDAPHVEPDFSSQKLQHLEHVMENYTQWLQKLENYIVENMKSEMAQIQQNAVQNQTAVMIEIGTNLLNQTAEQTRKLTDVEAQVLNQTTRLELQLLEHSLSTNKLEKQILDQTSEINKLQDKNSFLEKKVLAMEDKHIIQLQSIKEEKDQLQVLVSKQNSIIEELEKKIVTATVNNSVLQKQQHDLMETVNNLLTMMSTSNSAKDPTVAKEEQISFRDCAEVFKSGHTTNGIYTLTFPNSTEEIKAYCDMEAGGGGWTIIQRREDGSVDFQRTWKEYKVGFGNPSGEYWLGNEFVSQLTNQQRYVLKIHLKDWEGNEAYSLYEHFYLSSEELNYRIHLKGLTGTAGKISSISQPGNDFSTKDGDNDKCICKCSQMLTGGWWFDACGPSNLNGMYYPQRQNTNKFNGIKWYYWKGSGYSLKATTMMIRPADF

T3: human Ang-2 H375Q (human, UniProt O15123 19-496)
T3 sequence: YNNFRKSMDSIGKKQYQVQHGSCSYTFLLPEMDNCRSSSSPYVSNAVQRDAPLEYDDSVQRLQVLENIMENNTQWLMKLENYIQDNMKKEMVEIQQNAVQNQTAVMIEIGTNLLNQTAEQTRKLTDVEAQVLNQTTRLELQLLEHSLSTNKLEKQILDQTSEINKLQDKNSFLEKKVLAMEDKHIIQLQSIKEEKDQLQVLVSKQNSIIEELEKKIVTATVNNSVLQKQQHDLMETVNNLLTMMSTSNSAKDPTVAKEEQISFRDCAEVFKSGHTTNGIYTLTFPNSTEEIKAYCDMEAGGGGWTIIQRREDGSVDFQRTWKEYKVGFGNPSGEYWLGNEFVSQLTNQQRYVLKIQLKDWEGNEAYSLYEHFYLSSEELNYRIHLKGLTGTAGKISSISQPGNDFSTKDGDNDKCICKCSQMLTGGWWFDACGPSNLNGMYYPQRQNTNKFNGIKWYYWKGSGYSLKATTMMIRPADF

T4: human Angiopoietin-2 (human, UniProt O15123 19-496)
T4 construct: Mostly bought recombinant protein (R&D Systems 623-AM/CF, 623-AN; biotinylated BT623) or supernatant of transfected 293F cells; also called Ang-2; rhAng-2
T4 sequence: T3 sequence with Q356H

T5: mouse Angiopoietin-2 (mouse, UniProt O35608 19-496)
T5 construct: Used as conditioned medium of transfectants; also called mAng-2; mouse Ang-2
T5 sequence: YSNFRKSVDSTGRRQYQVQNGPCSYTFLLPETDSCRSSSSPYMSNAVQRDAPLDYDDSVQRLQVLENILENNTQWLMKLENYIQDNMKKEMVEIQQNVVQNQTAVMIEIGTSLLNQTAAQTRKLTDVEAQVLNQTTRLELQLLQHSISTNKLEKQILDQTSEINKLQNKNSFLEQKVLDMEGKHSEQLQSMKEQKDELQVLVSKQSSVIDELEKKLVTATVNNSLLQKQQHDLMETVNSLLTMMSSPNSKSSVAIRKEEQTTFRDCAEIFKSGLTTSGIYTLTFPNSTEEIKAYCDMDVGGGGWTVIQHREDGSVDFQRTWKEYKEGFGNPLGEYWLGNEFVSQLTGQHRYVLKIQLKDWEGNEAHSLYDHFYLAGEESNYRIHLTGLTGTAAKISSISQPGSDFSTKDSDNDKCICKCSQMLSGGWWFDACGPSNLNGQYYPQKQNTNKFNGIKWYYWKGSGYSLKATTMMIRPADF

B1: mAb 5.86.1 (antibody, V domains shown)
VH: QVQLVQSGAEVKKPGASVKVSCKASGYTFTGYHMYWVRQAPGQGLEWLGWINPNSGGTNYAQKFQGRVTMTRDTSISTAYMELSRLRSDDTAVYYCVRDQGIAAAGPFDYWCQGTLVTVSS
VL: DIRMTQSPSSLSASVGDRVTITCRASQRISTYLNWYQQKPGKAPKFLIYAASSLQSGVPSRFSGSGSGTDFTLTISSLQPEDFATYYCQQSYTTPFTFGPGTKVDIKR
notes: Human hybridoma IgG (XenoMouse); also called x5.86
B2: mAb 3.19.3 (antibody, V domains shown)
VH: QVQLVESGGGVVQPGRSLRLSCAASGFTFTNYGMHWGRQAPGKGLEWVAVISHDGNNKYYVDSVKGRFTISRDNSKNTLYLQMNSLRAEDTAVYYCAREGIDFWSGLNWFDPWGQGTLVTVSS
VL: EIVLTQSPGTLSLSPGERATLSCRASQSITGSYLAWYQQKPGQAPRLLICGASSWATGIPDRFSGSGSGTDFTLTISRLEPEDFAVYYCQQYSSSPITFGQGTRLEIKR
notes: Human hybridoma IgG (XenoMouse); also called x3.19
B3: mAb 5.83.1 (antibody, V domains shown)
VH: not shown
VL: EIVMTQSPATLSVSPGERATLSCRASQSLISNLAWYQQKPGQAPRLLIFGASTRATGIPARFSGSGSGTEFTLTISSLQSEDFAVYYCHQYNNWWTFGQGTKVEIKR
notes: Human hybridoma IgG (XenoMouse); also called x5.83
B4: mAb 5.88.3 (antibody, V domains shown)
VH: EVQMVESGGGLVQPGGSLRLSCAASGFTLRSYWMSWVRQAPGKGLEWVANIKEDGSEKYHVDSVKGRFTISRDNAENSLFLQMSSLRAEDTAVYYCARDMEASAGLFDYWGQGTLVTVSS
VL: B3 VL with T20I, L29I, I30S, F49Y, H89Q, N93Y
notes: Human hybridoma IgG (XenoMouse); also called x5.88
B5: mAb 3.31.2 (antibody, V domains shown)
VH: EVQLVESGGGLVQPGGSLRLSCAASGFTFSSYWMSWVRQAPGKGLEWVANIKQDGSDKYYVDSVKGRFTISRDNAKNSLYLRMNSLRAEDTAVFYCARDMGSGWFDYWGQGTLVTVSS
VL: B3 VL with I2V, L29V, I30G, F49Y, Y87C, H89Q, N93H
notes: Human hybridoma IgG (XenoMouse); also called x3.31
B6: mAb 5.54.1 (antibody, V domains shown)
VH: not shown
VL: B3 VL with V85I
notes: Human hybridoma IgG (XenoMouse); also called x5.54
B7: mAb 5.101.1 (antibody, V domains shown)
VH: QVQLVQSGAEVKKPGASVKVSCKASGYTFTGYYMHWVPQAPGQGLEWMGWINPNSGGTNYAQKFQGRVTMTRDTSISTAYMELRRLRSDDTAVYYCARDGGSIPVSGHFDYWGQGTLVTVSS
VL: B3 VL
notes: Human hybridoma IgG (XenoMouse); also called x5.101
B8: mAb 5.52.1 (antibody, V domains shown)
VH: QVQLVESGGGVVQPGRSLRLSCAASGFTFSSYGMHWVRQAPGKGLEWVAVRWYDESNKYYADSVKGRFTISRDNSKNTLYLQMNSLRAEDTAVYYCARDPFETGTTFDYWGQGTLVTVSS
VL: DIQMTQSPSSVSASVGDRVTITCRASQGISSWLAWYQQKPGKAPKLLIYAVSSLESGVPSRFSGSGSGTDFTLTISSLQPEDFATYYCQQALTFGGGTKVEIKR
notes: Human hybridoma IgG (XenoMouse); the line 5.52 has entries of its own (347, 349; light chain L2) that differ from the clone 5.52.1 (L5); also called x5.52
B9: mAb 5.56.1 (antibody, V domains shown)
VH: QVQLVESGGGVVQPGRSLRLSCAASGFTFSSYGMHWVRQAPGKGLEWVAVIWYDGSNKYYADSVKGRFTISRDNSKNTLYLQMNSLRAEDTAVYYCAREDNWNFYFDYWGQGTLVTVSS
VL: DIQMTQSPSSLSASVGDRVTITCRASQGISYYLAWYQQKPGKVPKLLIYAASTLQSGVPSRFSGSGSGTDFTLTISSLQPEDVATYYCQKYNSAPFTFGPGTKVDIKR
notes: Human hybridoma IgG (XenoMouse); also called x5.56
B10: mAb 5.28.1 (antibody, V domains shown)
VH: EVQLVESGGIVVQPGGSLRLSCAASGFTFDDYTMHWVRQTPGKGLEWVSLISWDGGSTYYADSVKGRFTISRDNSKNSLYLQMNSLRTEDTALYYCAKDIDIAVAGTGFDHWGQGTLVTVSS
VL: EIVMTQSPATLSVSPGERATLSCRASQSVTSNLAWYQQKPGQAPRLLIYGALIRATGIPARFSGSGSGTEFTLTISSLQSEDFAVYYCQQYNNWPFTFGPGTKVDIKR
notes: Human hybridoma IgG (XenoMouse); also called x5.28

These binders were tested against T1, human Ang-2443 (assay: ELISA).

% of binding to human Ang-2	Binder
100%	B1
100%	B2
100%	B3
100%	B4
100%	B5
100%	B6
100%	B7
100%	B8
100%	B9
100%	B10

Target: T2, Human Ang-1/2 BsmI chimeric molecule
Assay: ELISA

% of binding to human Ang-2	Binder
100%	B1
100%	B2
100%	B3
100%	B4
100%	B5
100%	B6
100%	B7
100%	B8
100%	B9
100%	B10

These binders were tested against T3, human Ang-2 H375Q (assay: ELISA).

% of binding to human Ang-2	Binder
100%	B1
100%	B2
100%	B3
100%	B4
100%	B5
100%	B6
100%	B7
100%	B8
100%	B9
100%	B10

These binders were tested against T4, human Angiopoietin-2 (assay: Biacore, mAb captured).
Procedure: The label-free surface plasmon resonance (SPR), or Biacore, was utilized to measure the antibody affinity to the antigen. For this purpose, a high-density goat anti-human antibody surface over a CM5 Biacore chip was prepared using routine amine coupling. All the purified mAbs were diluted to approximately 8 μg/ml in HBS-P running buffer containing 100 μg/ml BSA and 10 mg/mL carboxymethyldextran. Each mAb was captured on a separate surface using a 42-second contact time, and a 5-minute wash for stabilization of the mAb baseline.
Data were fit globally to a 1:1 interaction model to determine the binding kinetics.

Kd	koff	kon	Binder
0.744 nM	0.00011 s⁻¹	150000 M⁻¹ s⁻¹	B1
≤ 0.111 nM	–	90000 M⁻¹ s⁻¹	B2
≤ 0.147 nM	–	68000 M⁻¹ s⁻¹	B3
≤ 0.037 nM	–	270000 M⁻¹ s⁻¹	B4
≤ 0.051 nM	–	190000 M⁻¹ s⁻¹	B5
≤ 0.066 nM	–	150000 M⁻¹ s⁻¹	B6
0.581 nM	8.7e-05 s⁻¹	150000 M⁻¹ s⁻¹	B7
≤ 0.75 nM	–	13000 M⁻¹ s⁻¹	B8
≤ 0.052 nM	–	190000 M⁻¹ s⁻¹	B9
≤ 0.04 nM	–	250000 M⁻¹ s⁻¹	B10

These binders were tested against T5, mouse Angiopoietin-2 (assay: ELISA, recombinant mouse Ang-2).

binding result	Binder
no binding	B1
no binding	B3
no binding	B4
no binding	B6
no binding	B7

What follows are binders tested against T4, human Angiopoietin-2 (assay: inhibition of rhAng-2 binding to its receptor).

OD650 in inhibition assay	Binder
0.0419 OD650	B1
0.0633 OD650	B2
0.0484 OD650	B3
0.0874 OD650	B4
0.0516 OD650	B5
0.044 OD650	B6
0.0824 OD650	B7
0.0627 OD650	B8
0.0863 OD650	B9
0.0821 OD650	B10
